Results from the Human Domainome abundance scans (Beltran et al. 2025).

B1: Ankyrin-2, residues 3571 to 3650; numbered along this chain, Q01484 (parent)
chain: ERLAYIADHLGFSWTELARELDFTEEQIHQIRIENPNSLQDQSHALLKYWLERDGKHATDTNLVECLTKINRMDIVHLME

Variants of: B1
Test: abundance fitness (aPCA) (normalised: wild type 0, dead -1); higher = more abundant; growth selection in yeast, the domain comes from the species named
Conditions: Homo sapiens

Abundance fitness, by site and new letter:
K56: P -0.05 | R -0.037 | V -0.057 | L -0.043 | F -0.023 | I -0.084 | S -0.019 | H 0.022 | D 0.052 | E 0.149 | N -0.071 | W -0.126 | Q -0.067 | T -0.01 | A -0.02 | C 0.067 | Y -0.13
K48: H -0.015 | R 0.01 | N 0.028 | W -0.171 | T 0.04 | E -0.027 | L 0.02 | F -0.053 | Q -0.097 | Y -0.093 | I -0.164 | M -0.2 | V -0.076 | C 0.054 | D -0.062 | A -0.063 | S -0.094 | P -0.848
D54: T 0.018 | H 0.025 | N -0.033 | L -0.035 | I -0.354 | W -0.041 | Q -0.111 | G 0.003 | K 0.097 | C -0.134 | R -0.073 | Y 0.008 | F 0.01 | S -0.095 | A -0.022 | M -0.013 | E -0.02 | P -0.144 | V -0.024
T59: N -0.054 | L -0.04 | H -0.055 | A -0.035 | S 0.036 | D -0.103 | F -0.159 | Q 0.008 | R -0.087 | E -0.069 | K -0.025 | M -0.124 | C -0.095 | V -0.106 | G -0.088 | Y 0.121 | W -0.099
T61: A -0.102 | H -0.038 | D -0.017 | M -0.427 | F -0.063 | E -0.07 | I 0.027 | Q -0.093 | V 0.112 | N -0.244 | P 0.029 | L 0.084 | K -0.286 | G -0.011 | Y -0.087 | R -0.118
L47: V -0.034 | T -0.026 | F 0.046 | I -0.061 | K -0.412 | Q -0.626 | R -0.541 | M 0.123 | Y -0.148 | C -0.163 | N -0.582 | S -0.462 | P -1.28 | W -0.238 | E -0.673 | H -0.592 | G -0.409 | D -0.935
D60: F 0.074 | E -0.041 | W -0.067 | C -0.043 | H -0.286 | N -0.375 | M 0.019 | P -0.069 | T -0.016 | R -0.082 | A -0.07 | S -0.105 | Q -0.018 | I -0.104 | L -0.022 | Y -0.151 | G -0.115 | K -0.092
E52: W -0.045 | G -0.146 | I -0.039 | C -0.132 | F -0.034 | P -0.378 | V 0.006 | R -0.045 | D -0.178 | M -0.083 | S -0.057 | Y -0.393 | A 0.037 | Q 0.088 | K 0.036 | H -0.09 | L 0.012 | T 0.006
A58: C -0.026 | M -0.231 | W -0.167 | R -0.067 | N 0.054 | L 0.041 | S -0.193 | T -0.098 | P 0.027 | E -0.071 | Q 0.039 | I -0.294 | G -0.03 | H 0.156 | V -0.018 | F -0.05 | Y 0.026
H57: S 0.06 | D -0.061 | K 0.056 | E 0.101 | L -0.093 | P 0.009 | G -0.019 | R -0.052 | C -0.062 | M 0.004 | W -0.065 | V 0 | N -0.002 | F -0.107
E65: H -0.059 | I 0.143 | G 0.014 | K -0.086 | L -0.072 | Y 0.097 | R -0.011 | Q -0.017 | N -0.231 | V -0.099 | M -0.243 | A -0.012 | C -0.147 | T 0.031 | P 0.015 | W -0.246 | S -0.056 | D 0.193 | F -0.184
C66: H 0.009 | F -0.035 | A -0.016 | G -0.045 | D -0.363 | E 0.091 | K 0.014 | I -0.143
V64: S -0.011 | W -0.165 | M 0.007 | F -0.073 | P -0.266 | E 0.079 | I 0.009 | G -0.108 | C -0.134 | N -0.369 | D -0.206 | L -0.016 | A -0.019 | Q -0.065 | R 0.01 | T 0.025 | Y -0.041
Y49: C 0.037 | N -0.056 | V 0.068 | W -0.117 | F 0.02 | S -0.001 | G 0.042 | D -0.031 | A 0.016 | L 0.017 | R -0.129 | K -0.052 | I -0.009 | P -0.513 | M 0.059
N62: M 0.018 | Y -0.135 | I -0.169 | V 0.035 | S 0.007 | A -0.001 | R -0.013 | Q -0.082 | D 0.051 | W 0.012 | P -0.079 | K -0.374 | T -0.029 | E -0.089 | G 0.072 | L 0.004 | F -0.181 | H 0.015
W50: S -0.081 | D -0.598 | Y -0.14 | E -0.316 | L 0.012 | Q 0.003 | F -0.086 | G -0.28 | H -0.132 | N -0.041 | P -0.664 | K 0.063 | T -0.05 | V -0.017 | A 0.003 | M 0.007 | C -0.053 | R -0.205
R53: A -0.052 | G -0.117 | N -0.144 | S 0.005 | Y -0.166 | P -0.216 | K -0.029 | D -0.413 | V -0.067 | C -0.086 | H -0.092 | M -0.109 | W 0.002 | L -0.236 | T -0.029
L51: P -0.272 | F 0.037 | Y 0.031 | R -0.072 | E -0.111 | D -0.058 | V -0.087 | N -0.123 | S -0.107 | Q 0.104 | A -0.165 | W -0.106 | C -0.236 | I -0.015 | G -0.154 | H -0.034 | T 0.017
G55: A -0.013 | H -0.041 | T -0.026 | P -0.035 | L -0.017 | F -0.143 | M -0.061 | E -0.033 | Q 0.008 | K -0.094 | N 0.028 | S -0.045 | W -0.112 | D 0.041 | I -0.089 | Y -0.052 | C -0.114 | V -0.038
L63: H -0.777 | T -0.408 | M 0.022 | P -0.651 | G -0.624 | R -0.935 | Y -0.139 | I 0.07 | E -0.657 | A -0.11 | V -0.091 | Q -0.885 | F -0.143 | K -0.677 | S -0.634 | W -0.205 | C -0.044
